Values of other authors as cited in PMC4487222.

Target: CheY (Thermotoga maritima) (UniProt Q56312)
Sequence (Q56312 whole entry): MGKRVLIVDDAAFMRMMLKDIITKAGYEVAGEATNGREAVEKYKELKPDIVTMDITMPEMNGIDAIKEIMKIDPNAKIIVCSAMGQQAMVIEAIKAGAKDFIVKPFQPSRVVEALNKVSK

CheA, sequence (Q56310 whole entry): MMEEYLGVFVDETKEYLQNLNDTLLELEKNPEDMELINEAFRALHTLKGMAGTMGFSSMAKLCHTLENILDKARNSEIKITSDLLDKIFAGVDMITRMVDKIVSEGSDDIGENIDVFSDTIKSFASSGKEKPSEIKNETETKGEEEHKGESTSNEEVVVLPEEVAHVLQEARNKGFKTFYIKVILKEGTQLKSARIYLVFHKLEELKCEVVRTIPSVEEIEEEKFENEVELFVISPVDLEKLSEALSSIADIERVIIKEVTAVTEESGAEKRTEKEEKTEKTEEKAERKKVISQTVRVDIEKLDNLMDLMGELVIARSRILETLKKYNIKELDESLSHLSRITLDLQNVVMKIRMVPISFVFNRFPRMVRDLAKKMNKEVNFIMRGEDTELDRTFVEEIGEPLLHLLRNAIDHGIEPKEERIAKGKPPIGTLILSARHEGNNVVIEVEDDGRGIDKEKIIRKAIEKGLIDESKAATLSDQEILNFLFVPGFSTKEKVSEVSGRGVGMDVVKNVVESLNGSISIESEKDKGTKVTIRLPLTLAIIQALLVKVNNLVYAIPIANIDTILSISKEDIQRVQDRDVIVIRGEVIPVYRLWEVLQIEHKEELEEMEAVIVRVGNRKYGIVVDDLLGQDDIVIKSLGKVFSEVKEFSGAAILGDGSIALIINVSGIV

CheA (from UniProt Q56310)
Kd: 200 nM
